This is an account of results in paper PMC5656002 (ACS infectious diseases, 2016).

Residue numbers refer to the chain shown, from its start. Names may count otherwise. Like-named read-outs stand apart in the source and are kept apart here. Some results are limits rather than exact numbers.

In experiment [1] the target is SME-1 beta-lactamase (Serratia marcescens) (UniProt P52682). The note with it: cited from earlier work.
Experiment [2] has as its target CTX-M-14 beta-lactamase (Escherichia coli). The note with it: cited from earlier work.
Experiment [3] has as its target KPC-2 beta-lactamase (Klebsiella pneumoniae) (UniProt Q9F663). The note with it: cited from earlier work.
In experiment [4] the target is T1, KPC-2 β-lactamase (purified) (UniProt Q9F663 30-293). Nature of the experiment: enzyme inhibition assay.
Experiment [5] deals with T1, KPC-2 β-lactamase (purified). Put plainly: enzyme inhibition assay. This is another data set of the same source.
For experiment [6] the target is unchanged. Nature of the experiment: cell-based or functional assay.
Experiment [7] deals with T2, TEM-1 β-lactamase (purified) (UniProt P62593 24-286). Nature of the experiment: enzyme inhibition assay.
In experiment [8] the target is T2, TEM-1 β-lactamase (purified). Put plainly: enzyme inhibition assay. This is another data set of the same source.
Experiment [9] deals with T1, KPC-2 β-lactamase (purified). Put plainly: cell-based or functional assay. The source holds these as a separate data set.
For experiment [10] the target is unchanged. Nature of the experiment: enzyme inhibition assay. This is another data set of the same source.
The target is the same in experiment [11]. Put plainly: activity-based association and dissociation kinetics.
A further experiment concerns the target T3, SHV-1 β-lactamase (UniProt P0AD64 22-286).
T3 sequence (looked up): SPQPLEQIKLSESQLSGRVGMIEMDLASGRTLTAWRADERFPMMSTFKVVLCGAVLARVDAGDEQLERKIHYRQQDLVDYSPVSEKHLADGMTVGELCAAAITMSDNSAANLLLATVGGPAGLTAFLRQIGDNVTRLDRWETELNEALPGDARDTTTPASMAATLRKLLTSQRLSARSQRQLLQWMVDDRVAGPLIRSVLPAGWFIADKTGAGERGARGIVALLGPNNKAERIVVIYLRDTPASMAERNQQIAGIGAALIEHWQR
Put plainly: enzyme inhibition assay.

Another experiment deals with T4, SME-1 β-lactamase (UniProt P52682 28-294).
T4 sequence: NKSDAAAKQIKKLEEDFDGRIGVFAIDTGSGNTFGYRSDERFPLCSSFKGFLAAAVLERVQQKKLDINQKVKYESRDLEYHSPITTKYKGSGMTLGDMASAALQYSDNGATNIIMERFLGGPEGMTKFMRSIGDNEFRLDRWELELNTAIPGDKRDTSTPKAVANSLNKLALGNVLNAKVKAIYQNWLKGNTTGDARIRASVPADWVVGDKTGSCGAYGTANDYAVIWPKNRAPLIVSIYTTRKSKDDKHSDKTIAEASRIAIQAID
Nature of the experiment: enzyme inhibition assay.

The target of another experiment is CTX-M-14 β-lactamase (UniProt Q9L5C7 1-291). Put plainly: enzyme inhibition assay.
In experiment [12] the target is T2, TEM-1 β-lactamase (purified). Nature of the experiment: enzyme inhibition assay. The source holds these as a separate data set.

One may read the Ki as a measure of affinity in units of concentration, obtained from inhibition or displacement. Regarding BLIP (from UniProt P35804), the figures for the inhibitory constant (Ki) in experiment [1], in [2] and in experiment [3] were 2.4 nM, 800 nM and 0.082 nM, respectively.

B1: β-lactamase inhibitory protein (BLIP), wild type (natural protein, Streptomyces clavuligerus, UniProt P35804 37-201, looked up)
chain: AGVMTGAKFTQIQFGMTRQQVLDIAGAENCETGGSFGDSIHCRGHAAGDYYAYATFGFTSAAADAKVDSKSQEKLLAPSAPTLTLAKFNQVTVGMTRAQVLATVGQGSCTTWSEYYPAYPSTAGVTLSLSCFDVDGYSSTGFYRGSAHLWFTDGVLQGKRQWDLV
Take B1: the Ki in experiment [4] amounted to 0.2 ± 0.2 nM; in experiment [5], 1.2 ± 0.4 nM. Besides, in experiment [6], the “ampicillin MIC of E. coli TP142 (chromosomal blaKPC-2) carrying the BLIP plasmid” value (“ampicillin MIC of E. coli TP142” for short) worked out at 1 µg/mL.

B2: BLIP K74T (natural protein)
chain: B1 chain with K74T
Regarding B2, the Ki amounted to 1.5 ± 1 nM in experiment [4], 151 ± 97 nM in experiment [7], 1.8 ± 2.8 nM in experiment [5] and 110 ± 23 nM in [8]. Further, the “ampicillin MIC of E. coli TP142” value in [6] worked out at 1.5 µg/mL.

B3: BLIP E73K (natural protein)
chain: B1 chain with E73K
For B3, the inhibitory constant (Ki) in [4] was 8.9 ± 6.3 nM; in experiment [7], 2530 ± 578 nM; in experiment [5], 13.7 ± 6.6 nM; in [8] it was 835 ± 172 nM. The “ampicillin MIC of E. coli TP142” value in experiment [6] was found to be 1.5 µg/mL.

B4: BLIP E73K:R160G (natural protein)
chain: B1 chain with E73K, R160G
For orientation: Kd means the equilibrium constant for the complex coming apart. A low value points to higher affinity. In general, koff refers to a measure of how fast the partners let go of each other. Higher therefore signals fast dissociation. Usually kon stands for the second-order rate constant of association. In the case of B4, in experiment [9], the “ampicillin MIC of E. coli TP142” value was at most 3 µg/mL. Besides, the Ki in experiment [10] came to 128 ± 30 nM. Also, in experiment [11], the dissociation constant Kd stood at 60 nM, the koff turned out to be 0.03 s⁻¹ and the on-rate (kon) turned out to be 500000 M⁻¹ s⁻¹.

B5: BLIP K74T:R160G (natural protein)
chain: B1 chain with K74T, R160G
For B5, in [9], the “ampicillin MIC of E. coli TP142” value is at most 3 µg/mL. The molecule also returned a Ki in experiment [10] of 150 ± 57 nM.

B6: BLIP E73K:K74T (natural protein)
chain: B1 chain with E73K, K74T
Turning to B6, the “ampicillin MIC of E. coli TP142” value in [9] was at most 3 µg/mL. Besides, the Ki in [10] is 1.6 ± 0.8 nM. In [11], this molecule returned a dissociation constant Kd of 1.3 nM, a koff of 0.0004 s⁻¹ and an association rate constant (kon) of 300000 M⁻¹ s⁻¹.

B7: BLIP K74T:W112D (natural protein)
chain: B1 chain with K74T, W112D
With B7, the “ampicillin MIC of E. coli TP142” value in experiment [9] was at most 3 µg/mL. Moreover, the Ki in the experiment with SHV-1 β-lactamase is above 10000 nM; in experiment [10] it was 0.4 ± 0.2 nM; in the experiment with SME-1 β-lactamase it was 450 nM; with CTX-M-14 β-lactamase, above 10000 nM; in experiment [12], above 10000 nM. This molecule also had a Kd in experiment [11] of 0.13 nM. The same molecule displayed a koff in experiment [11] of 3e-05 s⁻¹. The same molecule gave a kon in experiment [11] of 200000 M⁻¹ s⁻¹.

B8: BLIP R160G (natural protein)
chain: B1 chain with R160G
In the case of B8, the Ki in experiment [4] is 0.4 ± 0.3 nM; in experiment [7] it was 236 ± 85 nM; in experiment [5], 0.9 ± 0.4 nM; in experiment [8] it was 236 ± 115 nM. Further, the “ampicillin MIC of E. coli TP142” value in experiment [6] came to 0.75 µg/mL.

B9: BLIP W112D (natural protein)
chain: B1 chain with W112D
As for B9, the inhibition constant Ki in experiment [4] is 587 ± 63 nM; in experiment [7], 1270 ± 212 nM; in experiment [5], 1080 ± 551 nM; in [8], 1190 ± 701 nM. Further, the “ampicillin MIC of E. coli TP142” value in experiment [6] came to 1 µg/mL.
